Key:
[1] = biological target: T1, α-synuclein (Homo sapiens, UniProt P37840); assay: α-synuclein fibrillation ThT assay; format: biochemical; conditions: for change of ThT fluorescence of α-synuclein: concentration increased to 46 μM
T1 construct: purchased rPeptide
Experimental: The effect of the five αB crystallin peptides, ST, DR, HG, LT, and ER on as synuclein fibrillation was measured using the ThT fluorescence assay (FIG. 28). The formation and inhibition of α-synuclein fibrils was qualitatively verified by fluorescence and bright-field microscopy. The concentration of the peptides was varied relative to α-synuclein to establish a concentration curve. In addition, the effect of a control neuropeptide (AT1) with no α-synuclein fibril inhibition activity was measured and compared to the effect of the αB crystallin peptides on α-synuclein fibrillation. The ThT fluorescence of 46 μM α-synuclein alone incubated at 37° C. for 96 hrs, increased from ˜9,500 to ˜16,000 RFU. Addition of 9.2 μM αB crystallin peptides ST, DR, HG, LT, and ER decreased the ThT fluorescence of α-synuclein by 32-100%. When the concentration of the αB crystallin peptides was increased to 46 μM, the ThT fluorescence of α-synuclein decreased with the αB crystallin peptides, DR, HG, LT, and ER, while the ThT fluorescence increased with the ST peptide. […] The negative control peptide AT1 had no effect on α-synuclein fibrillation even at a concentration as high as 460 μM. All five αB crystallin peptides inhibited α-synuclein fibrillation at sub-stoichometric and stoichometric concentrations (9.2 μM and 46 μM).
The Thioflavin T (ThT) fluorescence of 46 μM α-synuclein in the presence of varying concentrations of αB crystallin peptides and controls was measured. […] When the concentration of the peptides was increased to […] (1:1::peptide:α-synuclein), the αB crystallin peptides DR, HG, LT and ER decreased the ThT fluorescence by 51-100%, while the ST peptide had no effect on ThT fluorescence. When the concentration of the peptides was increased further to […] (10:1::peptide:α-synuclein), the five αB crystallin peptides decreased the ThT fluorescence by 40-100%. […] The formation and inhibition of β2-microglobulin fibrils was verified microscopically.
α-synuclein fibrillation ThT assays were performed as described previously. Zhu et al., J Biol Chem 279:26846-57, 2004; Dedmon et al., J Biol Chem 280:14733-40, 2005. Peptides were dissolved to 2 mM in 0.25% DMSO and diluted accordingly, while α-synuclein was dissolved in 20 mM Tris-Cl, 100 mM NaCl, pH 7.4. For the 5:1::peptide: α-synuclein assay, 5 μL of 700 μM peptide or APS was mixed with 5 μL of 140 μM α-synuclein, 17 μt of 20 mM Tris-Cl, 100 mM NaCl, pH 7.4 and 3 μL of 1 mM ThT. For the 1:1::peptide:α-synuclein assay, 5 μL of 140 μM peptide was mixed with 5 μL of 140 μM α-synuclein, 17 μl of 20 mM Tris-Cl, 100 mM NaCl, pH 7.4 and 3 μL of 1 mM ThT. For the 1:5::peptide:α-synuclein assay, 5 μL of 28 μM peptide was mixed with 5 μL of 140 μM α-synuclein, and […] of 20 mM Tris-Cl, 100 mM NaCl, pH 7.4 and 3/L of 1 mM ThT. ThT fluorescence was measured using a Perkin Elmer Victor^3 V plate reader. Assays were performed in 384-well fluorescence plates in duplicates or triplicates. Samples were incubated at 37° C. for a total of 96 hours. ThT fluorescence was measured at 0, 24, 48, and 96 hours. The effect of the peptides and APS was calculated as percentage fibril formation relative to α-synuclein alone (100%) at the end of 96 hours.

[2] = biological target: beta amyloid (Homo sapiens, UniProt P05067); assay: αB crystallin protein pin array, binding of beta amyloid; conditions: immobilized 8-mer peptide; absorption at 450 nm

Sequence	change of ThT fluorescence of α-synuclein [1]	binding of beta amyloid in the protein pin assay [2]	also measured
DRFSVNLDVKHFS	decreased	–	effect on α-synuclein fibril formation, overall [1]: most effective inhibitor
ERTIPITRE	decreased	–	–
FSVNLDVK [Peptide 38]	–	positive	–
HGKHEERQDE	decreased	–	effect on α-synuclein fibril formation, overall [1]: most effective inhibitor
LTITSSLS [Peptide 66]	–	positive	–
LTITSSLSSDGV	decreased	–	–
STSLSPFYLRPPSFLRAP	increased	–	decrease in ThT fluorescence of α-synuclein ([1]; 16 μM (1:1::peptide:α-synuclein) as printed): no effect
WIRRPFFP [Peptide 5]	–	positive	–
